The text below walks through data of PMC6590058.

The target of one series is T1, IRF1 (UniProt P10914 1-325).
T1 sequence: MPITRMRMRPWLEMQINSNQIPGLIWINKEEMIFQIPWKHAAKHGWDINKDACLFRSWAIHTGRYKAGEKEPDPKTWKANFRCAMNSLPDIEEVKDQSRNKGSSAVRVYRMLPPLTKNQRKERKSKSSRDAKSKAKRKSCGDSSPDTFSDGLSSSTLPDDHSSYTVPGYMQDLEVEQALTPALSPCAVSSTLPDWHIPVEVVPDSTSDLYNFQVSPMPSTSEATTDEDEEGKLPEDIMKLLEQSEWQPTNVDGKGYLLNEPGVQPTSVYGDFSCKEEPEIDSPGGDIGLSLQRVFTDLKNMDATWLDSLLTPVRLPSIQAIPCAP
The series is described as follows: EMSA. For orientation: A gel shift assay detects complexes by their altered migration in electrophoresis.

The target of the next series is SMAD4 (UniProt Q13485 1-552). Briefly: EMSA.
SMAD4, sequence (Q13485 whole entry): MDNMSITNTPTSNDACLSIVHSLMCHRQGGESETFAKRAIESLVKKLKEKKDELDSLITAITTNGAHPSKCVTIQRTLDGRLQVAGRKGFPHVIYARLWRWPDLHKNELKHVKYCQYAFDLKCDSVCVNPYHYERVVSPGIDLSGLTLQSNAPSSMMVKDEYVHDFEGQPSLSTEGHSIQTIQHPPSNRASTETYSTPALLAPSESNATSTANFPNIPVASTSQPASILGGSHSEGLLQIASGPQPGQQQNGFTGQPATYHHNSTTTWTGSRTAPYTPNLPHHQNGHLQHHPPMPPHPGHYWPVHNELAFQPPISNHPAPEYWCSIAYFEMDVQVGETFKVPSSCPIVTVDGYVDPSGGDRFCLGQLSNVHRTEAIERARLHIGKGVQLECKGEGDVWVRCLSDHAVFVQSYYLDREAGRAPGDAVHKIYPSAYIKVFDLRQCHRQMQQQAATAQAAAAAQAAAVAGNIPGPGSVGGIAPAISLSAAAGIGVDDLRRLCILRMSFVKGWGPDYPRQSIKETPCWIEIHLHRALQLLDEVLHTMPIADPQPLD

B1: IFI6-ISRE-25 (dsDNA)
DNA 1: GAGAGGGGAAAATGAAACTGCAGAG
DNA 2: CTCTGCAGTTTCATTTTCCCCTCTC
Regarding B1, the binding result was “binds” with IRF1 and “no binding” with SMAD4.

B2: HAMP-BRE-25 (dsDNA)
DNA 1: TCTCCCGCCTTTTCGGCGCCACCAC
DNA 2: GTGGTGGCGCCGAAAAGGCGGGAGA
Regarding B2, the binding result is “no binding” with IRF1 and “binds” in the series with SMAD4.
